Data as given in US20140221623A1 (Ablynx, published 2014).
Where a chain is given by its changes, count along the chain named.

T1: Human soluble IL6-R (human, UniProt P08887 20-358)
T1 construct: Bought soluble receptor; biotinylated in some Alphascreen assays; also called sIL6-R; hIL-6R
T1 sequence (looked up): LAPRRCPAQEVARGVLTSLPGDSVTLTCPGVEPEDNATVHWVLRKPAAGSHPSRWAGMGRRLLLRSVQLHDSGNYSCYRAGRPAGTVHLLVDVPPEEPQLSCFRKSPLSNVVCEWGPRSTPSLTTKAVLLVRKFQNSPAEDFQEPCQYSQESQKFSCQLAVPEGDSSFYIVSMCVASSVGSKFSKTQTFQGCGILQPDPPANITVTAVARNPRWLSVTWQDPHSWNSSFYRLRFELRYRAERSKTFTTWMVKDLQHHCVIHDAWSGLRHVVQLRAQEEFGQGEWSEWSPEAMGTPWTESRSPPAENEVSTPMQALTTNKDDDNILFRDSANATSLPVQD

B1: PMP 28 A2 (VHH)
VHH: EVQLVESGGGLVQPGGSLRLSCAASGFTFGSYDMSWVRQAPGKGPEWVSAINSGGGSTYYADSVKGRFTISRDNAKNTLYLQMNSLKPEDTAVYYCATDWRYSDYDLPLPPPGDYWGQGTQVTVSS
notes: also called PMP28A2(t)
B2: PMP 28 D4 (VHH)
VHH: B1 VHH
notes: also called PMP28D4(t)
B3: PMP 28 F7 (VHH)
VHH: B1 VHH
notes: also called PMP28F7(t)
B4: PMP 32 H5 (VHH)
VHH: B1 VHH
notes: also called PMP32H5(t)
B5: PMP 31 F4 (VHH)
VHH: B1 VHH
notes: also called PMP31F4(t)
B6: PMP 31 C8 (VHH)
VHH: B1 VHH
notes: also called PMP31C8(t)
B7: PMP 28 H6 (VHH)
VHH: B1 VHH
notes: also called PMP28H6(t)
B8: PMP 31 B4 (VHH)
VHH: B1 VHH
notes: also called PMP31B4(t)
B9: PMP 31 B11 (VHH)
VHH: B1 VHH
notes: also called PMP31B11(t)
B10: PMP 28 C7 (VHH)
VHH: B1 VHH with G56D, S57N
notes: also called PMP28C7(t)
B11: PMP 28 G3 (VHH)
VHH: EVQLVESGGGLVQAGGSLRLSCTASGNIFSTETMGWYRQPPGKQRDVVATITHGGTTNYADSVKGRFTISRDNRKNTVYLQMNSLKPEDTGVYYCNARSSWYSPEYWGQGTQVTVSS
B12: PMP 33 A2 (VHH)
VHH: EVQLVESGGGLVQPGGSLRLSCAASGFSLDYYAIGWFRQAPGKEREGVSCMDSSGGTTSTYYSDSVKGRFTISRDDAKNTVYLQMNSLKPEDTAVYYCAADGHLNWGQRYVPCSQISWRGWNDYWGQGTQVTVSS
notes: also called PMP33A2(t)
B13: PMP 34 F8 (VHH)
VHH: B12 VHH with G55D, S59N, V95S, R109P
notes: also called PMP34F8(t)
B14: PMP 32 F10 (VHH)
VHH: EVQLVESGGGLVQAGGSLRLSCAASGFTFDDYAIGWFRQAPGKEREGISCISSSDGSTYYADSVKGRFTISSDNAKNTVYLQMNSLKPEDTAVYYCAAEPPDSSWILDGSPEFFKFWGQGTQVTVSS
notes: also called PMP32F10(t)
B15: PMP 31 C5 (VHH)
VHH: B14 VHH with I48V, Q82L, S104M, I106S
notes: also called PMP31C5(t)
B16: PMP 31 D2 (VHH)
VHH: B14 VHH with I48V, C50G, S57N, S104N, I106Y
notes: also called PMP31D2(t)
B17: PMP 34 C11 (VHH)
VHH: EVQLVESGGGLVQPGGSLRLSCAAAGFTLDYSAIGWFRQAPGKEREMFSCISGSDGSTWYADSVAGRFTISFDNAKNTVYLQMNSLKPEDTGLYICAVTGGVRGPCAYEYEYWGQGTQVTVSS
B18: PMP 34 D2 (VHH)
VHH: EVQLVESGGGLVQPGGSLRLSCAASGFTLDYFAIGWFRQAPGKERERVSCISSSDGSTYYADSVKGRFTISRDNAKNTVYLQMNSLKPEDTAVYYCATDRSVYYCSGGAPEEYYWGQGTQVTVSS
notes: also called PMP34D2(t)
B19: PMP 33 G3 (VHH)
VHH: B18 VHH with D30G, R47G, T58A, I70V
notes: also called PMP33G3(t)
B20: PMP 30 B1 (VHH)
VHH: B18 VHH with F32Y, F37W, E44G, R47G, S54G, Y59N
notes: also called PMP30B1(t)
B21: PMP 34 A5 (VHH)
VHH: B18 VHH with D30G, R47G, I70V
notes: also called PMP34A5(t)
B22: PMP 30 G11 (VHH)
VHH: EVQLVESGGGLVQPGGSLRLSCVASGFSLDYYVIGWFRQAPGKEREGVSCISSSDGSTYYADSVKGRFTISRDNAKNTVYLQMNSLKPEDTAVYYCAADLLRTPEFCVDSAPYDYWGQGTQVTVSS
notes: also called PMP30G11(t)
B23: PMP 34 C3 (VHH)
VHH: B22 VHH with Q118R
notes: also called PMP34C3(t)
B24: PMP 30 B6 (VHH)
VHH: B22 VHH with V23A, S28T, G47A, S49A, G56R, V79G, V108S
notes: also called PMP30B6(t)
B25: PMP 30 A2 (VHH)
VHH: B22 VHH with V23A, S28T, S52G, G56D, V108T
notes: also called PMP30A2(t)
B26: PMP 33 C10 (VHH)
VHH: EVQLVESGGGLVQPGGSLRLSCAASGFTFDDYGMSWVRQAPGKGLEWVSAISWNGGSTYYTESMKGRFTISRDNAKNTVYLQMNSLKPEDTAVYYCVKGSTAIVGVPPTYPDEYDYWGQGTQVTVSS
notes: also called PMP33C10(t)
B27: PMP 30 A10 (VHH)
VHH: B26 VHH
notes: also called PMP30A10(t)
B28: IL6R71 (VHH)
VHH: B14 VHH with A14P, A33D, E44G, I48V, C50G, S57N, K87R, I106Y, F116Y, Q122L
notes: Humanized variant of IL6R04
B29: IL6R74 (VHH)
VHH: EVQLVESGGGLVQPGGSLRLSCAASGFTFDDYDIGWFRQAPGKGREGVSGISSSDGNTYYADSVKGRFTISSDNAKNTLYLQMNSLRPEDTAVYYCAAEPPDSSWYLDGSPEFFKYWGQGTLVTVSS
notes: Humanized variant of IL6R04
B30: IL6R75 (VHH)
VHH: B29 VHH with D30S, S72R
notes: Humanized variant of IL6R04
B31: IL6R73 (VHH)
VHH: B29 VHH with S72R, L79V
notes: Humanized variant of IL6R04
B32: IL6R72 (VHH)
VHH: B29 VHH with D30S, L79V
notes: Humanized variant of IL6R04
B33: IL6R81 (VHH)
VHH: B26 VHH with K43R, G44A, L45T, G56N, S57N, K87R, Q122L
notes: Humanized variant of IL6R13
B34: IL6R84 (VHH)
VHH: B26 VHH with G56N, S57N, V79L, K87R, Q122L
notes: Humanized variant of IL6R13
B35: IL6R90 (VHH)
VHH: B26 VHH with G44A, G56N, S57N, V79L, K87R, Q122L
notes: Humanized variant of IL6R13
B36: IL6R86 (VHH)
VHH: B26 VHH with K43R, G44A, G56N, S57N, V79L, K87R, Q122L
notes: Humanized variant of IL6R13
B37: IL6R89 (VHH)
VHH: B26 VHH with K43R, L45T, G56N, S57N, V79L, K87R, Q122L
notes: Humanized variant of IL6R13
B38: IL6R87 (VHH)
VHH: B26 VHH with G44A, L45T, G56N, S57N, V79L, K87R, Q122L
notes: Humanized variant of IL6R13
B39: IL6R82 (VHH)
VHH: B26 VHH with G56N, S57N, K87R, Q122L
notes: Humanized variant of IL6R13
B40: IL6R85 (VHH)
VHH: B26 VHH with K43R, G56N, S57N, V79L, K87R, Q122L
notes: Humanized variant of IL6R13
B41: IL6R83 (VHH)
VHH: B26 VHH with K43R, G44A, L45T, G56N, S57N, V79L, K87R, Q122L
notes: Humanized variant of IL6R13
B42: IL6R61 (VHH)
VHH: EVQLVESGGGLVQPGGSLRLSCAASGSIFKVNAMGWYRQAPGKGRELVAGIISGGSTNYADSVKGRLTISRDNAKNTVYLQMNSLRPEDTAVYYCSFVTTNSDYDLGRDYWGQGTLVTVSS
notes: Humanized variant of IL6R03
B43: IL6R62 (VHH)
VHH: B42 VHH with L67F
notes: Humanized variant of IL6R03
B44: IL6R64 (VHH)
VHH: B42 VHH with S96A
notes: Humanized variant of IL6R03
B45: IL6R63 (VHH)
VHH: B42 VHH with V78L
notes: Humanized variant of IL6R03
B46: IL6R65 (VHH)
VHH: B42 VHH with L67F, V78L, S96A
notes: Humanized variant of IL6R03

Molecular target: T1, Human soluble IL6-R
Assay: SPR (Biacore), off-rate

Binder	koff
B1	0.00124 s⁻¹
B2	0.00185 s⁻¹
B3	0.00126 s⁻¹
B4	0.00128 s⁻¹
B5	0.00123 s⁻¹
B6	0.00125 s⁻¹
B7	0.00247 s⁻¹
B8	0.00128 s⁻¹
B9	0.00124 s⁻¹
B10	0.00131 s⁻¹
B11	0.00193 s⁻¹
B12	0.0005 s⁻¹
B13	0.000142 s⁻¹
B14	0.00058 s⁻¹
B15	0.000111 s⁻¹
B16	0.000281 s⁻¹
B17	0.00367 s⁻¹
B18	0.000331 s⁻¹
B19	0.00119 s⁻¹
B20	0.001 s⁻¹
B21	0.00168 s⁻¹
B22	0.00164 s⁻¹
B23	0.000435 s⁻¹
B24	0.000842 s⁻¹
B25	0.00257 s⁻¹
B26	0.00308 s⁻¹
B27	0.00268 s⁻¹

Molecular target: T1, Human soluble IL6-R
Assay: SPR (Biacore 3000), IL6-R on CM5 chip

Binder	Kd	koff	kon
B28	220 pM	0.000153 s⁻¹	703000 M⁻¹ s⁻¹
B29	160 pM	0.000122 s⁻¹	767000 M⁻¹ s⁻¹
B30	< 100 pM	< 0.0001 s⁻¹	1e+06 M⁻¹ s⁻¹
B31	330 pM	0.000233 s⁻¹	698000 M⁻¹ s⁻¹
B32	330 pM	0.00018 s⁻¹	543000 M⁻¹ s⁻¹
B33	400 pM	0.000128 s⁻¹	320000 M⁻¹ s⁻¹
B34	5360 pM	0.00409 s⁻¹	762000 M⁻¹ s⁻¹
B35	–	0.00192 s⁻¹	–
B36	–	0.0017 s⁻¹	–
B37	–	0.00019 s⁻¹	–
B38	–	0.000105 s⁻¹	–
B39	5070 pM	0.00314 s⁻¹	619000 M⁻¹ s⁻¹
B40	–	0.00206 s⁻¹	–
B41	340 pM	0.00012 s⁻¹	350000 M⁻¹ s⁻¹
B42	2000 pM	0.0017 s⁻¹	850000 M⁻¹ s⁻¹
B43	2220 pM	0.00207 s⁻¹	929000 M⁻¹ s⁻¹
B44	–	0.001 s⁻¹	–
B45	3690 pM	0.00365 s⁻¹	990000 M⁻¹ s⁻¹
B46	4000 pM	0.00235 s⁻¹	600000 M⁻¹ s⁻¹
